Measured values taken from US20190177366A1 (published 2019).
Numbered stars: 1 amine (or outer) side, 2 acyl side, 3 side chain; on linkers, the order of the positions; unused ones are H or OH. Bridge positions count the residues as written; N and C are the ends. Square brackets hold non-standard residues; d marks the D form. Primed or numbered codes have the meaning given here. NH(CH2)9CO = O=C(CCCCCCCCCN[*:1])[*:2]; NH(CH2)8CO = O=C(CCCCCCCCN[*:1])[*:2]; Cit = NC(=O)NCCC[C@H](N)C(=O)O; Aun = NCCCCCCCCCCC(=O)O; Hyp′ = 3-hydroxyproline; Aoc = NCCCCCCCC(=O)O; Ahp = NCCCCCCC(=O)O; Ahx = NCCCCCC(=O)O; Ava = NCCCCC(=O)O

B1: Compound 84 (peptide)
peptide: Ac-CRLPWNLQR[NH(CH2)9CO]C-NH2
modifications: disulfide 1-11
SMILES: CC(=O)N[C@H]1CSSC[C@@H](C(N)=O)NC(=O)CCCCCCCCCNC(=O)[C@H](CCCNC(=N)N)NC(=O)[C@H](CCC(N)=O)NC(=O)[C@H](CC(C)C)NC(=O)[C@H](CC(N)=O)NC(=O)[C@H](Cc2c[nH]c3ccccc23)NC(=O)[C@@H]2CCCN2C(=O)[C@H](CC(C)C)NC(=O)[C@H](CCCNC(=N)N)NC1=O
B2: Compound 36 (peptide)
peptide: Ac-SGCFIPWNLQ[Cit]IGLPC-NH2
modifications: disulfide 3-16
SMILES: CC[C@H](C)[C@@H]1NC(=O)[C@H](CCCNC(N)=O)NC(=O)[C@H](CCC(N)=O)NC(=O)[C@H](CC(C)C)NC(=O)[C@H](CC(N)=O)NC(=O)[C@H](Cc2c[nH]c3ccccc23)NC(=O)[C@@H]2CCCN2C(=O)[C@H]([C@@H](C)CC)NC(=O)[C@H](Cc2ccccc2)NC(=O)[C@@H](NC(=O)CNC(=O)[C@H](CO)NC(C)=O)CSSC[C@@H](C(N)=O)NC(=O)[C@@H]2CCCN2C(=O)[C@H](CC(C)C)NC(=O)CNC1=O
B3: Compound 116 (peptide)
peptide: Ac-CRLPWNLQRI[Ahx]C-NH2
modifications: disulfide 1-12
SMILES: CC[C@H](C)[C@@H]1NC(=O)[C@H](CCCNC(=N)N)NC(=O)[C@H](CCC(N)=O)NC(=O)[C@H](CC(C)C)NC(=O)[C@H](CC(N)=O)NC(=O)[C@H](Cc2c[nH]c3ccccc23)NC(=O)[C@@H]2CCCN2C(=O)[C@H](CC(C)C)NC(=O)[C@H](CCCNC(=N)N)NC(=O)[C@@H](NC(C)=O)CSSC[C@@H](C(N)=O)NC(=O)CCCCCNC1=O
B4: Compound 89 (peptide)
peptide: H-WCLWNLKRIGSQCWF-NH2
modifications: disulfide 2-13
SMILES: CC[C@H](C)[C@@H]1NC(=O)[C@H](CCCNC(=N)N)NC(=O)[C@H](CCCCN)NC(=O)[C@H](CC(C)C)NC(=O)[C@H](CC(N)=O)NC(=O)[C@H](Cc2c[nH]c3ccccc23)NC(=O)[C@H](CC(C)C)NC(=O)[C@@H](NC(=O)[C@@H](N)Cc2c[nH]c3ccccc23)CSSC[C@@H](C(=O)N[C@@H](Cc2c[nH]c3ccccc23)C(=O)N[C@@H](Cc2ccccc2)C(N)=O)NC(=O)[C@H](CCC(N)=O)NC(=O)[C@H](CO)NC(=O)CNC1=O
B5: Compound 87 (peptide)
peptide: Ac-GCLWNLKRIGSQCWF-NH2
modifications: disulfide 2-13
SMILES: CC[C@H](C)[C@@H]1NC(=O)[C@H](CCCNC(=N)N)NC(=O)[C@H](CCCCN)NC(=O)[C@H](CC(C)C)NC(=O)[C@H](CC(N)=O)NC(=O)[C@H](Cc2c[nH]c3ccccc23)NC(=O)[C@H](CC(C)C)NC(=O)[C@@H](NC(=O)CNC(C)=O)CSSC[C@@H](C(=O)N[C@@H](Cc2c[nH]c3ccccc23)C(=O)N[C@@H](Cc2ccccc2)C(N)=O)NC(=O)[C@H](CCC(N)=O)NC(=O)[C@H](CO)NC(=O)CNC1=O
B6: Compound 83 (peptide)
peptide: Ac-CRLPWNLQR[Aun]C-NH2
modifications: disulfide 1-11
SMILES: CC(=O)N[C@H]1CSSC[C@@H](C(N)=O)NC(=O)CCCCCCCCCCNC(=O)[C@H](CCCNC(=N)N)NC(=O)[C@H](CCC(N)=O)NC(=O)[C@H](CC(C)C)NC(=O)[C@H](CC(N)=O)NC(=O)[C@H](Cc2c[nH]c3ccccc23)NC(=O)[C@@H]2CCCN2C(=O)[C@H](CC(C)C)NC(=O)[C@H](CCCNC(=N)N)NC1=O
B7: Compound 37 (peptide)
peptide: Ac-SGCRL[Hyp′]WNLQRIGLPC-NH2
modifications: disulfide 3-16
B8: Compound 86 (peptide)
peptide: Ac-CRLPWNLQR[Aoc]C-NH2
modifications: disulfide 1-11
SMILES: CC(=O)N[C@H]1CSSC[C@@H](C(N)=O)NC(=O)CCCCCCCNC(=O)[C@H](CCCNC(=N)N)NC(=O)[C@H](CCC(N)=O)NC(=O)[C@H](CC(C)C)NC(=O)[C@H](CC(N)=O)NC(=O)[C@H](Cc2c[nH]c3ccccc23)NC(=O)[C@@H]2CCCN2C(=O)[C@H](CC(C)C)NC(=O)[C@H](CCCNC(=N)N)NC1=O
B9: Compound 121 (peptide)
peptide: Ac-CRLPWNLQRI[Ahp]C-NH2
modifications: disulfide 1-12
SMILES: CC[C@H](C)[C@@H]1NC(=O)[C@H](CCCNC(=N)N)NC(=O)[C@H](CCC(N)=O)NC(=O)[C@H](CC(C)C)NC(=O)[C@H](CC(N)=O)NC(=O)[C@H](Cc2c[nH]c3ccccc23)NC(=O)[C@@H]2CCCN2C(=O)[C@H](CC(C)C)NC(=O)[C@H](CCCNC(=N)N)NC(=O)[C@@H](NC(C)=O)CSSC[C@@H](C(N)=O)NC(=O)CCCCCCNC1=O
B10: Compound 90 (peptide)
peptide: Ac-WCLWNLKRIGSQCWF-OH
modifications: disulfide 2-13
SMILES: CC[C@H](C)[C@@H]1NC(=O)[C@H](CCCNC(=N)N)NC(=O)[C@H](CCCCN)NC(=O)[C@H](CC(C)C)NC(=O)[C@H](CC(N)=O)NC(=O)[C@H](Cc2c[nH]c3ccccc23)NC(=O)[C@H](CC(C)C)NC(=O)[C@@H](NC(=O)[C@H](Cc2c[nH]c3ccccc23)NC(C)=O)CSSC[C@@H](C(=O)N[C@@H](Cc2c[nH]c3ccccc23)C(=O)N[C@@H](Cc2ccccc2)C(=O)O)NC(=O)[C@H](CCC(N)=O)NC(=O)[C@H](CO)NC(=O)CNC1=O
B11: Compound 63 (peptide)
peptide: Ac-MCLWNLKRIGSQCEY-NH2
modifications: disulfide 2-13
SMILES: CC[C@H](C)[C@@H]1NC(=O)[C@H](CCCNC(=N)N)NC(=O)[C@H](CCCCN)NC(=O)[C@H](CC(C)C)NC(=O)[C@H](CC(N)=O)NC(=O)[C@H](Cc2c[nH]c3ccccc23)NC(=O)[C@H](CC(C)C)NC(=O)[C@@H](NC(=O)[C@H](CCSC)NC(C)=O)CSSC[C@@H](C(=O)N[C@@H](CCC(=O)O)C(=O)N[C@@H](Cc2ccc(O)cc2)C(N)=O)NC(=O)[C@H](CCC(N)=O)NC(=O)[C@H](CO)NC(=O)CNC1=O
B12: Compound 64 (peptide)
peptide: Ac-DCLWNLKRIGSQCEY-NH2
modifications: disulfide 2-13
SMILES: CC[C@H](C)[C@@H]1NC(=O)[C@H](CCCNC(=N)N)NC(=O)[C@H](CCCCN)NC(=O)[C@H](CC(C)C)NC(=O)[C@H](CC(N)=O)NC(=O)[C@H](Cc2c[nH]c3ccccc23)NC(=O)[C@H](CC(C)C)NC(=O)[C@@H](NC(=O)[C@H](CC(=O)O)NC(C)=O)CSSC[C@@H](C(=O)N[C@@H](CCC(=O)O)C(=O)N[C@@H](Cc2ccc(O)cc2)C(N)=O)NC(=O)[C@H](CCC(N)=O)NC(=O)[C@H](CO)NC(=O)CNC1=O
B13: Compound 65 (peptide)
peptide: Ac-WCLWNLKRIGSQCEY-NH2
modifications: disulfide 2-13
SMILES: CC[C@H](C)[C@@H]1NC(=O)[C@H](CCCNC(=N)N)NC(=O)[C@H](CCCCN)NC(=O)[C@H](CC(C)C)NC(=O)[C@H](CC(N)=O)NC(=O)[C@H](Cc2c[nH]c3ccccc23)NC(=O)[C@H](CC(C)C)NC(=O)[C@@H](NC(=O)[C@H](Cc2c[nH]c3ccccc23)NC(C)=O)CSSC[C@@H](C(=O)N[C@@H](CCC(=O)O)C(=O)N[C@@H](Cc2ccc(O)cc2)C(N)=O)NC(=O)[C@H](CCC(N)=O)NC(=O)[C@H](CO)NC(=O)CNC1=O
B14: Compound 95 (peptide)
peptide: Ac-FCLWNLKRIGSQCEY-NH2
modifications: disulfide 2-13
SMILES: CC[C@H](C)[C@@H]1NC(=O)[C@H](CCCNC(=N)N)NC(=O)[C@H](CCCCN)NC(=O)[C@H](CC(C)C)NC(=O)[C@H](CC(N)=O)NC(=O)[C@H](Cc2c[nH]c3ccccc23)NC(=O)[C@H](CC(C)C)NC(=O)[C@@H](NC(=O)[C@H](Cc2ccccc2)NC(C)=O)CSSC[C@@H](C(=O)N[C@@H](CCC(=O)O)C(=O)N[C@@H](Cc2ccc(O)cc2)C(N)=O)NC(=O)[C@H](CCC(N)=O)NC(=O)[C@H](CO)NC(=O)CNC1=O
B15: Compound 85 (peptide)
peptide: Ac-CRLPWNLQR[NH(CH2)8CO]C-NH2
modifications: disulfide 1-11
SMILES: CC(=O)N[C@H]1CSSC[C@@H](C(N)=O)NC(=O)CCCCCCCCNC(=O)[C@H](CCCNC(=N)N)NC(=O)[C@H](CCC(N)=O)NC(=O)[C@H](CC(C)C)NC(=O)[C@H](CC(N)=O)NC(=O)[C@H](Cc2c[nH]c3ccccc23)NC(=O)[C@@H]2CCCN2C(=O)[C@H](CC(C)C)NC(=O)[C@H](CCCNC(=N)N)NC1=O
B16: Compound 115 (peptide)
peptide: Ac-CRLPWNLQRI[Ava]C-NH2
modifications: disulfide 1-12
SMILES: CC[C@H](C)[C@@H]1NC(=O)[C@H](CCCNC(=N)N)NC(=O)[C@H](CCC(N)=O)NC(=O)[C@H](CC(C)C)NC(=O)[C@H](CC(N)=O)NC(=O)[C@H](Cc2c[nH]c3ccccc23)NC(=O)[C@@H]2CCCN2C(=O)[C@H](CC(C)C)NC(=O)[C@H](CCCNC(=N)N)NC(=O)[C@@H](NC(C)=O)CSSC[C@@H](C(N)=O)NC(=O)CCCCNC1=O
B17: Compound 88 (peptide)
peptide: Ac-FCLWNLARIGSQCWF-NH2
modifications: disulfide 2-13
SMILES: CC[C@H](C)[C@@H]1NC(=O)[C@H](CCCNC(=N)N)NC(=O)[C@H](C)NC(=O)[C@H](CC(C)C)NC(=O)[C@H](CC(N)=O)NC(=O)[C@H](Cc2c[nH]c3ccccc23)NC(=O)[C@H](CC(C)C)NC(=O)[C@@H](NC(=O)[C@H](Cc2ccccc2)NC(C)=O)CSSC[C@@H](C(=O)N[C@@H](Cc2c[nH]c3ccccc23)C(=O)N[C@@H](Cc2ccccc2)C(N)=O)NC(=O)[C@H](CCC(N)=O)NC(=O)[C@H](CO)NC(=O)CNC1=O

Molecular target: T1, His-tagged, full-length PCSK9 (human, UniProt A8T644 31-152; Q8NBP7 153-692)
T1 construct: Target protein of the PCSK9/EGF(A) TR-FRET assay (10 nM); also called His-PCSK9; proprotein convertase subtilisin/kexin type 9
Experiment: TR-FRET competition; competitor EGF(A)-Fc on His-PCSK9

T1 sequence (A8T644 31-152 limits assumed, chain 1 of 2): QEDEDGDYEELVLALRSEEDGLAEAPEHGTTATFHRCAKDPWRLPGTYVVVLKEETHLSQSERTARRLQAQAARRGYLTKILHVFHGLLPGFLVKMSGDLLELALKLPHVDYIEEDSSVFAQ
T1 sequence (A8T644 other isoform, or with tags, fused parts or gaps limits assumed, chain 2 of 2): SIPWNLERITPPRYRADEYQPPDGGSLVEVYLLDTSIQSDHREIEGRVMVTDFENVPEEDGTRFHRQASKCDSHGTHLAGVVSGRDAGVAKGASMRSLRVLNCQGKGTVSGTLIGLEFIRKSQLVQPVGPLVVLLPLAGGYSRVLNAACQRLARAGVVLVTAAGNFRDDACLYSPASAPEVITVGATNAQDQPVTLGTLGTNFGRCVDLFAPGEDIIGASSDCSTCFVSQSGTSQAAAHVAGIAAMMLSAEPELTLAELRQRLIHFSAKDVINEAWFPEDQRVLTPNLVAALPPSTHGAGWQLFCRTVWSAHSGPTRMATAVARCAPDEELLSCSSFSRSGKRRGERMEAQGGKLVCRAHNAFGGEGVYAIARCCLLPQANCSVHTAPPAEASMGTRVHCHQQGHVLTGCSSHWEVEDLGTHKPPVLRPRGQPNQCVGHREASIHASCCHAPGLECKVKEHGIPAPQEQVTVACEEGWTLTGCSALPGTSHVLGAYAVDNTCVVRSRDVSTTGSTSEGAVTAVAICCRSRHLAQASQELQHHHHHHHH

Binder | IC50 [µM]
B1 | > 50
B2 | > 50
B3 | > 50
B4 | 6.9
B5 | > 50
B6 | > 50
B7 | > 50
B8 | > 50
B9 | > 50
B10 | 29.2
B11 | 14.6
B12 | > 50
B13 | > 50
B14 | > 50
B15 | > 50
B16 | > 50
B17 | 17.9
